# Measured values taken from patent US10087231B2, “Substitution mutant receptors and their use in an ecdysone receptor-based inducible gene expression system” (Intrexon Corporation, priority 2001, dated 2018).
# Positions count from the first letter of the chain named. Names and notes keep the numbering of the source. “Also recorded” adds a separate entry of the source.
# B1: E401D: MmRXRα ligand binding domain substitution mutant, glutamic acid to aspartic acid at 401 of SEQ ID NO: 1, fused to VP16 (protein)
# chain: MGPKKKRKVAPPTDVSLGDELHLDGEDVAMAHADALDDFDLDMLGDGDSPGPGFTPHDSAPYGALDMADFEFEQMFTDALGIDEYGGEFPANEDMPVEKILEAELAVEPKTETYVEANMGLNPSSPNDPVTNICQAADKQLFTLVEWAKRIPHFSELPLDDQVILLRAGWNELLIASFSHRSIAVKDGILLATGLHVHRNSAHSAGVGAIFDRVLTELVSKMRDMQMDKTELGCLRAIVLFNPDSKGLSNPAEVEALREKVYASLDAYCKHKYPEQPGRFAKLLLRLPALRSIGLKCLEHLFFFKLIGDTPIDTFLMEMLEAPHQAT
# B2: G429S: MmRXRα ligand binding domain substitution mutant, glycine to serine at 429 of SEQ ID NO: 1, fused to VP16 (protein)
# chain: B1 chain with D266E, G294S
# B3: E401D/G429S: double substitution mutant MmRXRα-EF with E401D and G429S; three independent clones analyzed (protein)
# chain: B1 chain with G294S
# B4: M431L: HsRXRβ ligand binding domain substitution mutant (SEQ ID NO: 2) (protein, listed as Homo sapiens)
# chain: MSWAARPPFLPQRHAAGQCGPVGVRKEMHCGVASRWRRRRPWLDPAAAAAAAVAGGEQQTPEPEPGEAGRDGMGDSGRDSRSPDSSSPNPLPQGVPPPSPPGPPLPPSTAPSLGGSGAPPPPPMPPPPLGSPFPVISSSMGSPGLPPPAPPGFSGPVSSPQINSTVSLPGGGSGPPEDVKPPVLGVRGLHCPPPPGGPGAGKRLCAICGDRSSGKHYGVYSCEGCKGFFKRTIRKDLTYSCRDNKDCTVDKRQRNRCQYCRYQKCLATGMKREAVQEERQRGKDKDGDGEGAGGAPEEMPVDRILEAELAVEQKSDQGVEGPGGTGGSGSSPNDPVTNICQAADKQLFTLVEWAKRIPHFSSLPLDDQVILLRAGWNELLIASFSHRSIDVRDGILLATGLHVHRNSAHSAGVGAIFDRVLTELVSKMRDLRMDKTELGCLRAIILFNPDAKGLSNPSEVEVLREKVYASLETYCKQKYPEQQGRFAKLLLRLPALRSIGLKCLEHLFFFKLIGDTPIDTFLMEMLEAPHQLA
# Key:
# [1] = tested on: GAL4/CfEcR-DEF and pFRLuc in NIH3T3 cells; experiment: Reporter gene transactivation of VP16/mutant MmRXRα-EF with GAL4/CfEcR-DEF and pFRLuc, GS™-E ligand; assay type: cell-based, mouse; conditions: for induction levels / sensitivity to non-steroid ligand: NIH3T3 cells, 0.2, 1 and 10 μM GS™-E; for background levels in the absence of ligand: NIH3T3 cells, VP16/MmRXRα-EF mutant + GAL4/CfEcR-DEF + pFRLuc, no ligand (DMSO)
# Protocol: (§1) The resulting PCR nucleic acid products encoding the mutant RXR ligand binding domains were then each fused to a VP16 transactivation domain as described in Examples 1.3 and 1.6 above. The VP16/mutant RXR receptor constructs were tested for activity by transfecting them into NIH3T3 cells along with GAL4/CfEcR-DEF and pFRLuc in the presence of non-steroid ligand.
# (§2) DNAs corresponding to the various switch constructs outlined in Example 1.1-1.6 were transfected into mouse NIH3T3 cells (ATCC) as follows. Standard methods for culture and maintenance of the cells were followed. […] Superfect™ (Qiagen Inc.) was used as the transfection reagent. For 12-well plates, 4 μl of Superfect™ was mixed with 100 μl of growth medium. One μg of reporter construct and 0.25 μg of each receptor construct of the receptor pair to be analyzed were added to the transfection mix. […] The cells were harvested and reporter activity was assayed.
# Cells were harvested 40 hours after adding ligand. […] Twenty μl of lysate were assayed.
# DNAs corresponding to the various switch constructs outlined in Example 1, specifically switches 1.1-1.4, were transfected into mouse NIH3T3 cells (ATCC) as follows. […] Two μl of Superfect™ was mixed with 100 μl of growth medium and 50 ng of GAL4/CfEcR-DEF cassette, 50 ng of: VP16/LmUSP-EF, VP16/wild-typeMmRXRα-EF, VP16/MmRXRα-LmUSPchimera-EF, or VP16/mutantMmRXRα-EF, and 200 ng of pFRLuc were added to the transfection mix. […] The cells were harvested and reporter activity was assayed as described above.
# [2] = tested on: GAL4/CfEcR-DEF and pFRLuc in NIH3T3 cells; assay type: cell-based, mouse; conditions: 0.04-25 μM GS™-E (FIG. 4)
# Protocol: as §1, §2
# Cells were harvested 40 hours after adding ligand. […] Twenty μl of lysate were assayed. […]
# The cells were harvested and reporter activity was assayed as described above.
# As discussed above, a CfEcR-based gene regulation system is ligand dependent when RXRs are used as the heterodimeric partner and ligand independent when USPs are used as the heterodimeric partner. However, reporter gene expression is induced at very high levels when CfUSP is used as the heterodimeric partner. To improve RXR as heterodimeric partner, Applicants have aligned the polypeptide sequences of several USP and RXR ligand binding domains (domains EF) and identified amino acid residues that are different between these two nuclear receptor family members. In particular, Applicants identified residues that are conserved in all USPs but are different in RXRs and mutated these residues in HsRXRβ. […] The cells were harvested and reporter activity was assayed as described above.
Molecule,induction levels [1],sensitivity to non-steroid ligand [1],background levels in the absence of ligand [1],"performance compared with chimeric vertebrate RXR/invertebrate RXR ([1]; NIH3T3 cells, 0.2, 1 and 10 μM GS™-E (FIG. 2))",transactivation activity [2]
B1,higher induction levels,increased sensitivity to a non-steroid ligand,higher background,–,–
B2,–,increased sensitivity to a non-steroid ligand; also recorded: increased sensitivity to ligand,less background,–,–
B3,increased induction levels,increased induction levels and ligand sensitivity,low background levels,work as well as the chimeric RXR,–
B4,–,–,–,–,essentially eliminated transactivation activity
